PMC7905068, “Bornyl Diphosphate Synthase From Cinnamomum burmanni and Its Application for (+)-Borneol Biosynthesis in Yeast” (Frontiers in Bioengineering and Biotechnology, 2021)

Substrate: CC(C)=CCC/C(C)=C/COP(=O)(O)OP(=O)(O)O
Assay: GC-MS of products after CIAP dephosphorylation, Michaelis-Menten fit
Type: biochemical, Cinnamomum burmanni
Conditions: 50 mM HEPES pH 7.2, 10 mM MgCl2, 5 mM DTT, 30 °C, 3 min, 0.125-150 μM GPP

B1: CbTPS1 (Cinnamomum burmanni) (protein)
chain: MALQMTVPFLSSFLPNPRHRPTAHGFIPQERVSKHISCSTTTPTYSTTVPRRSGNYKPSIWDYDFVQSLVSDYKVEAHGTRVEKLKEVVKNLLKETDSSLAQMELIDSLHRLGVRWLFENEIKQVLYTVSSDNTSIEMKKDLHAVSTRFRLLRQHGFKVSTDVFNDFEDEKGCFKPSLSMDIKGMLSLYEASHLAFQGETILDEARAFTHAHLMGIKENIDPIIHKKVEHALDMPLHWRLEKLEARWYMDMYMREEGMNSSLLELAMLHFNIVQATFQTNLKSLSRWWKDLGLGEQLSFSRDRLVECFFWAAAMTSEPQFGRCQEAVAKVVQLTTTIDDIYDVYGTVDELELFTNAVDRWDLEAMEQLPEYMKTCFLALYNSINEIGYGILKEQGRNVIPYLRNAWTELCKAYLVEAKWYSSGYTPMLEEFLQTSWISVGSLPMQTYAFALLGQNLAPESCDFAEQISDILPLAGMLIRFPDDLGTSLDELKRGDVPKSIQCYMHEAGVTEDVARDHIMGLFRETWKKLNEYLVESSIPHAFIDQAMNLGRVSYCTYKHGDGFSDGFGDPGSQEKKMYMSLFVEPIQVDEAKGISFCVDGGYA
Km: 5.11 ± 1.70 µM
kcat: 0.01 s^–1
